Patent publication US11229679B2, “Compositions for treating heart disease by inhibiting the action of mAKAPβ” (Anchored RSK3 Inhibitors, LLC, priority 2013, dated 2022)

What was measured:
NHE1 = conditions: Cuello 2007; cited from earlier work
[1] = tested on: Noonan syndrome mouse model (Raf1L613V knock-in); conditions: Wu 2011; cited from earlier work
[2] = tested on: neonatal rat ventricular myocytes; test: Neonatal rat ventricular myocyte hypertrophy (cross-section area, ANF expression); assay type: cell-based; conditions: for agonist-induced myocyte hypertrophy: BI-D1870 10 μmol/L, SL0101 50 μmol/L, PE, LIF or FBS, 2 days; for PE-induced hypertrophy: expressed in neonatal myocytes
Description: Neonatal rat myocytes isolation and culture: 1-3 day old Sprague-Dawley rats were decapitated and the excised hearts placed in 1×ADS Buffer (116 mmol/L NaCl, 20 mmol/L HEPES, 1 mmol/L NaH2PO4, 5.5 mmol/L glucose, 5.4 mmol/L KCl, 0.8 mmol/L MgSO4, pH 7.35). The atria were carefully removed and the blood washed away. The ventricles were minced and incubated with 15 mL 1×ADS Buffer containing 3.3 mg type II collagenase (Worthington, 230 U/mg) and 9 mg Pancreatin (Sigma) at 37° C. while shaking at 80 RPM. After 15 minutes, the dissociated cardiac myocytes were separated by centrifugation at 50×g for 1 minute, resuspended in 4 mL horse serum and incubated 37° C. with occasional agitation. The steps for enzymatic digestion and isolation of myocytes were repeated 10-12 times to maximize yield. The myocytes were pooled and spun down again at 50×g for 2 minutes and resuspended in Maintenance Medium (DMEM:M199, 4:1) supplemented with 10% horse serum and 5% fetal bovine serum. To remove any contaminating fibroblasts, the cells were pre-plated for 1 hour before plating on gelatin-coated tissue culture plasticware. This procedure yields >90% pure cardiac myocytes. After 1 day in culture, the media was changed to maintenance medium containing 0.1 mmol/L bromodeoxyuridine to suppress fibroblast growth. Experiments were initiated 1 day after myocyte isolation. Adenoviral infection was performed by addition of adenovirus (multiplicity of infection=5-50) to the media. Plasmids and siRNA oligonucleotides were transfected using Transfast (Promega) and Dharmafect (Thermofisher), respectively, as recommended by the manufacturers using cells cultured in maintenance medium supplemented with 4% horse serum. Starting the day after gene transduction, the cells were treated for as long as 2 days, as indicated for each experiment. Immunocytochemistry: Cultured neonatal cardiomyocytes on plastic coverslips were fixed in 3.7% formaldehyde in PBS, permeabilized with 0.3% Triton X-100 in PBS, and blocked with PBS containing 0.2% BSA and 1% horse serum for 1 hour. The slides were then sequentially incubated for 1 hour with primary and Alexa fluorescent dye-conjugated specific-secondary antibodies (Invitrogen, 1:1000) diluted in blocking buffer. The slips were washed three times with blocking buffer. 1 μg/mL Hoechst 33258 was included in the last wash stop to label nuclei. Slides were sealed in SlowFade Gold antifade buffer (Invitrogen) for fluorescent microscopy. Wide-field images were acquired using a Leica DMI 6000 Microscope. Morphometry: Morphometric data was acquired using IPLab Software. […] For adult mouse cardiac myocytes, the maximum lengths perpendicular (width) or parallel (length) to the myofibrils were measured for >100 freshly dissociated myocytes per heart.

RSK = RSK activation in neonatal rat ventricular myocytes (pan-RSK phospho-S218 Western blot); assay type: cell-based; conditions: 10 μmol/L PE, 1 hour
From the text: RSK family members can be activated in most cell types by ERK, but not c-Jun N-terminal kinases or p38 (Anjum 2008). ERK phosphorylation is permissive for PDK1 phosphorylation of the RSK N-terminal kinase domain, such that PDK1 phosphorylation of RSK S^218 is indicative of full activation of the enzyme (FIG. 4A). […] The α-adrenergic stimulation with phenylephrine (PE) induced RSK phosphorylation 3-fold by both MEK1/2-dependent (that activates ERK1/2) and MEK5-dependent (that activates ERK5) mechanisms (FIG. 22).
Immunoprecipitations: HEK293 and COS-7 cells were transfected with Lipofectamine 2000 (Invitrogen) or Polyethylenimine “Max” (Polysciences). Cells (including myocytes) were lysed in buffer (20 mmol/L HEPES, pH 7.4, 150 mmol/L NaCl, 5 mmol/L EDTA, 0.5% Triton, 50 mmol/L NaF, 1 mmol/L sodium orthovanadate, 1 mmol/L DTT, and protease inhibitors). After centrifugation at 10,000×g for 10 minutes at 4° C., the clarified extracts were used for immunoprecipitation using appropriate antibodies (10 μg purified antibody or 1-5 μL whole serum) and 20 μL protein G sepharose (Millipore, Fastflow) for 3 hours to overnight at 4° C. The beads were washed 3-5 times with lysis buffer, and the immunoprecipitated proteins were eluted with 1× Laemmli buffer for western blotting. […]

RSK3 = molecular target: T1, RSK3 (Homo sapiens, UniProt Q15349); test: Surface plasmon resonance of His-RSK3 binding to immobilized His-mAKAP 1286-1833
T1 construct: bacterially expressed His-tagged mAKAP 1286 to 1833 and full-length RSK3 was analyzed by surface plasmon resonance; His; made in house; host or cells: bacteria (pET30 / pGEX-4T vectors)
Description: Surface Plasmon Resonance: SPR analysis was performed using a BIAcore T100. 200 resonance units His-tagged mAKAP 1286-1833 were covalently immobilized using NHS (N-hydroxysuccinamide) and EDC [1-ethyl-3-(3-(dimethylamino)propyl)carbodiimide] (Biacore amine coupling kit) to the surface of a sensor chip (BIAcore type CM5). His-RSK3 analytes (6.25-200 nmol/L) in HBS buffer (10 mmol/L Hepes, pH 7.4, 150 mmol/L NaCl, and 0.005% Surfactant P20) were injected at a flow rate of 30 μL/min for 5 minutes, followed by buffer alone for another 5 minutes. Sensorgrams were processed by BIAcore T100 evaluation software.
For phosphorylated His-RSK3, 20 μg His-RSK3 was phosphorylated with 2 μg ERK2 (Millipore, 14-550) and/or PDK1 (Sigma, P7498) for 5 hours in kinase buffer (20 mmol/L MOPS, pH 7.2, 25 mmol/L β-glycerol phosphate, 5 mmol/L EGTA, 1 mmol/L sodium orthovanadate, 1 mmol/L DTT) with 0.5 mmol/L MgATP. Phospho-His-RSK3 was purified using His-binding beads and concentrated before use.

[3] = tested on: HA-RSK3 fragments, HA-RSK2; test: Co-immunoprecipitation of tagged mAKAP and RSK proteins co-expressed in COS-7 cells; assay type: binding
Description: (§1) Immunoprecipitations: HEK293 and COS-7 cells were transfected with Lipofectamine 2000 (Invitrogen) or Polyethylenimine “Max” (Polysciences). Cells (including myocytes) were lysed in buffer (20 mmol/L HEPES, pH 7.4, 150 mmol/L NaCl, 5 mmol/L EDTA, 0.5% Triton, 50 mmol/L NaF, 1 mmol/L sodium orthovanadate, 1 mmol/L DTT, and protease inhibitors). After centrifugation at 10,000×g for 10 minutes at 4° C., the clarified extracts were used for immunoprecipitation using appropriate antibodies (10 μg purified antibody or 1-5 μL whole serum) and 20 μL protein G sepharose (Millipore, Fastflow) for 3 hours to overnight at 4° C. The beads were washed 3-5 times with lysis buffer, and the immunoprecipitated proteins were eluted with 1× Laemmli buffer for western blotting. Western blots were developed using horseradish peroxidase-conjugated donkey secondary antibodies, Supersignal West Chemiluminescent Substrates (Thermo Scientific) and X-ray film or a Fujifilm LAS-3000 imaging system.

RSK3 and mAKAPβ = test: Co-immunoprecipitation of endogenous RSK3 with mAKAPβ complexes from PE-treated myocytes; assay type: cell-based, rat; conditions: expressed in neonatal myocytes
Description: as §1

T1 sequence (Q15349 whole entry): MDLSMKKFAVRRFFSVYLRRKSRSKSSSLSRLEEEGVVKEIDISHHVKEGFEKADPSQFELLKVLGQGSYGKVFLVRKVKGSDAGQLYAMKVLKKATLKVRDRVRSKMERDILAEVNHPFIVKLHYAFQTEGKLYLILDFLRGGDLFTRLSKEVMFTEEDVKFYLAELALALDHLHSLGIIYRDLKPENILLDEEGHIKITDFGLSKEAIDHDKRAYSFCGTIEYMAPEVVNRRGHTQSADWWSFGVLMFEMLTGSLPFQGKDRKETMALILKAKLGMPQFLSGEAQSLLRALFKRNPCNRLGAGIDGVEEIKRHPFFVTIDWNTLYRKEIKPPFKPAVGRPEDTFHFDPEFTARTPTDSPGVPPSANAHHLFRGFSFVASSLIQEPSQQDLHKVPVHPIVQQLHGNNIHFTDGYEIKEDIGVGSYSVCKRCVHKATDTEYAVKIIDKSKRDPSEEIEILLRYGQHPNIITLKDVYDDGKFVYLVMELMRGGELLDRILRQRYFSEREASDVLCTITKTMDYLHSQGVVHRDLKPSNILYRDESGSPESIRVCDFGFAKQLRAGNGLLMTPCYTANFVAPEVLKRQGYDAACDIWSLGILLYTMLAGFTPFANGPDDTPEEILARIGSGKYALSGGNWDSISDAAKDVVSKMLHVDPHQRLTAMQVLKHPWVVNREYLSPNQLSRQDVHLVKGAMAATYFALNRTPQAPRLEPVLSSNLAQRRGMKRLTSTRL

In the case of `Cc1ccc(-c2c(C(=O)CF)n(CCCO)c3ncnc(N)c23)cc1` [fmk], the “α-adrenergic-induced NHE1 phosphorylation” value (NHE1) is listed as “blocked”.

In the case of `O=C(NOC[C@H](O)CO)c1ccc(F)c(F)c1Nc1ccc(I)cc1F` [PD0325901], the “progression of cardiac hypertrophy cardiomyopathy and other Noonan characteristics” value [1] is listed as “attenuated progression”.

For `CC(C)CCN1c2nc(Nc3cc(F)c(O)c(F)c3)ncc2N(C)C(=O)C1C` (stereo not drawn) [BI-D1870, reference compound], the agonist-induced myocyte hypertrophy [2] was “inhibited”.

In the case of `CC(=O)OC1C(C)OC(Oc2c(-c3ccc(O)cc3)oc3cc(O)cc(O)c3c2=O)C(O)C1OC(C)=O` (stereo not drawn) [SL0101, reference compound], the agonist-induced myocyte hypertrophy [2] is reported as “inhibited”.

For `CNC[C@H](O)c1cccc(O)c1` [phenylephrine], the “induction of RSK phosphorylation” value (RSK) was 3 fold.

B1: mAKAP 1286 to 1833: bacterially expressed His-tagged mAKAP fragment, residues 1286 to 1833 (protein)
chain: VYSLHNVELHEDSHTPFLKSSPKFTGTTQPTVLTKSLSKDSSFSSTKSLPDLLGGSGLVRPYSCHSGDLSQNSGSESGIVSEGDNEMPTNSDMSLFSMVDGSPSNPETEHPDPQMGDAANVLEQKFKDNGESIKLSSVSRASVSPVGCVNGKAGDLNSVTKHTADCLGEELQGKHDVFTFYDYSYLQGSKLKLPMIMKQPQSEKAHVEDPLLGGFYFDKKSCKAKHQASESQPDAPPHERILASAPHEMGRSAYKSSDIEKTFTGIQSARQLSLLSRSSSVESLSPGGDLFGLGIFKNGSDSLQRSTSLESWLTSYKSNEDLFSCHSSGDISVSSGSVGELSKRTLDLLNRLENIQSPSEQKIKRSVSDMTLQSSSQKMPFAGQMSLDVASSINEDSPASLTELSSSDELSLCSEDIVLHKNKIPESNASFRKRLNRSVADESDVNVSMIVNVSCTSACTDDEDDSDLLSSSTLTLTEEELCLKDEDDDSSIATDDEIYEESNLMSGLDYIKNELQTWIRPKLSLTREKKRSGVTDEIKVNKDGGGNE
modifications: left off: small tags and cut ends
In the case of B1, the “decrease of RSK3 binding affinity for mAKAP” value (RSK3; RSK3 previously phosphorylated by ERK) is reported as 5 fold, the “decrease of RSK3 binding affinity for mAKAP” value (RSK3; RSK3 previously phosphorylated by both ERK and PDK1) is reported as 8 fold and the “KD of binding to full-length RSK3” value (RSK3; unphosphorylated His-RSK3) is reported as “nanomolar”.

B2: mAKAP RBD: main RSK3 binding domain of mAKAP, fragment encompassing residues 1694 to 1833; competing binding peptide (protein)
chain: ELSLCSEDIVLHKNKIPESNASFRKRLNRSVADESDVNVSMIVNVSCTSACTDDEDDSDLLSSSTLTLTEEELCLKDEDDDSSIATDDEIYEESNLMSGLDYIKNELQTWIRPKLSLTREKKRSGVTDEIKVNKDGGGNE
modifications: left off: small tags and cut ends
In the case of B2, the “binding to N-terminally truncated RSK3 mutant (HA-RSK3 DN30) or HA-tagged full-length RSK2” value [3] is reported as “not” and the PE-induced hypertrophy [2] is reported as “inhibited”.

B3: green fluorescent protein-mAKAP RBD fusion protein: myc-GFP-mAKAP RSK binding domain (RBD) fusion protein; mAKAP 1694-1833 (protein)
chain: B2 chain
modifications: left off: small tags and cut ends; large carriers
With B3 the PE-induced hypertrophy [2] was “markedly inhibited” and the “association of endogenous RSK3 and mAKAPβ” value (RSK3 and mAKAPβ) was “competed”.
